Results published in article PMC5937523 (Biochemistry, 2017).

T1: human KDAC8 (lysine deacetylase 8) (human) (UniProt Q9BY41)
T1 sequence: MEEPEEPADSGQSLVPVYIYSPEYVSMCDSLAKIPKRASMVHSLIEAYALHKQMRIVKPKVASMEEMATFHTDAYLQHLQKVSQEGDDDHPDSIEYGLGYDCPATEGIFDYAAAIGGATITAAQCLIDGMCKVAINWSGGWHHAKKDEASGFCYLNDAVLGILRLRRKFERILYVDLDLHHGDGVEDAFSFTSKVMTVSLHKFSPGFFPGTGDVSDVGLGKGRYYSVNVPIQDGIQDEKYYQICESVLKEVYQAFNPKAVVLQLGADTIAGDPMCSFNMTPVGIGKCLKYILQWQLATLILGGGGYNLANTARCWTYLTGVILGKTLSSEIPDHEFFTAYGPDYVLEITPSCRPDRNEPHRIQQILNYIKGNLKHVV

T2: KDAC6 (Homo sapiens, UniProt Q9UBN7)
T2 sequence (Q9UBN7 1-1215): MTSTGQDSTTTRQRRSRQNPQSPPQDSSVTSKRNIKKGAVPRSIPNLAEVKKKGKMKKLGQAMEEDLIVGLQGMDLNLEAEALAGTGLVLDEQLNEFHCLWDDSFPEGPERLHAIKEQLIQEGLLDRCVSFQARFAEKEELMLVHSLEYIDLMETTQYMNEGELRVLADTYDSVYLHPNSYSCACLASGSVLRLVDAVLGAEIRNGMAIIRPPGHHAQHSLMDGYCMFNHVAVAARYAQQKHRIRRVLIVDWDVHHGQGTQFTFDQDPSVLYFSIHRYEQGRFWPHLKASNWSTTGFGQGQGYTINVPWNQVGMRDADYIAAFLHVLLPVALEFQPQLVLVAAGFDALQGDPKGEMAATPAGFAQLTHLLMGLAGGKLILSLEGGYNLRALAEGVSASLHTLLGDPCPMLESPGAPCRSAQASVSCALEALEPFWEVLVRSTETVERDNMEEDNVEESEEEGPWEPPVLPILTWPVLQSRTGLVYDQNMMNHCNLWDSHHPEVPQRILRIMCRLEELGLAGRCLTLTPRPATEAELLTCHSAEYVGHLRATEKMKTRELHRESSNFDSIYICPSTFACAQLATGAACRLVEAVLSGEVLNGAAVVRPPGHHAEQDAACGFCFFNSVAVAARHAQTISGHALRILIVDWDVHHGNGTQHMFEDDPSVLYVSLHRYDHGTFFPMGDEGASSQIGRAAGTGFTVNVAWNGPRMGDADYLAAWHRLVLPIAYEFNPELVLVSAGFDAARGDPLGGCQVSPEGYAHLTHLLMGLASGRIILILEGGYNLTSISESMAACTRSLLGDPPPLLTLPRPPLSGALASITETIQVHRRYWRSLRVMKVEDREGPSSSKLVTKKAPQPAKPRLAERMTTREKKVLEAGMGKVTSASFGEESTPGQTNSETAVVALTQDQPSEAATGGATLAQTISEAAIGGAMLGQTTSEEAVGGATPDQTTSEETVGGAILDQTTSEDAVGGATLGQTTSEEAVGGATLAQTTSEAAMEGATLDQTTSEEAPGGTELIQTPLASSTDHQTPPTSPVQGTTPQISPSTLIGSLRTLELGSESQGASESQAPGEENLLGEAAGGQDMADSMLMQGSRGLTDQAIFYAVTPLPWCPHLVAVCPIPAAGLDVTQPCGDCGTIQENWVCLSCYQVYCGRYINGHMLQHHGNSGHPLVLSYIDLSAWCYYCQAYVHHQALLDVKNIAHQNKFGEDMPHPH


Key:
[1] = target: T1, human KDAC8 (lysine deacetylase 8) (human)
KDAC6 = target: T2, KDAC6
[2] = target: KDAC6 (lysine deacetylase 6) (human) (UniProt Q9UBN7)

Row | Molecule | KM of steady-state deacetylation kinetics (fluorescamine assay, 25 °C) [1] [µM] | KM of steady-state deacetylation kinetics (fluorescamine assay, 25 °C) [2] [µM] | SAHA inhibition of KDAC6 in the presence and absence of AMC (KDAC6)
1 | RG{K-ac} (peptide) | > 5000 |  | 
2 | O=C(CCCCCCC(=O)Nc1ccccc1)NO [SAHA, suberoylanilide hydroxamic acid] |  |  | comparable
3 | Ac-RGK(Ac)W-NH2 [RG{K-ac}W] | 2700 |  | 

Now from value to molecule, other results behind:

Row | KM of steady-state deacetylation kinetics (fluorescamine assay, 25 °C) [1] [µM] | KM of steady-state deacetylation kinetics (fluorescamine assay, 25 °C) [2] [µM] | Molecule | SAHA inhibition of KDAC6 in the presence and absence of AMC (KDAC6)
4 | > 5000 | 70 | {K-ac}W (peptide) | 
5 | 3100 | 370 | Ac-RHK(Ac)K(Ac)-NH2 [RH{K-ac}{K-ac}] | 
6 | 1200 |  | Ac-RHK(Ac)K(Ac)W-NH2 [RH{K-ac}{K-ac}W] | 
